Results published in US20240301031A1 (JIANGSU HENGRUI PHARMACEUTICALS, published 2024).
Like-named read-outs stand apart in the source and are kept apart here.

Key:
[1] = target: T1, human APRIL (5860-AP-010/CF, R&D Systems) (human, UniProt O75888 115-250, limits assumed); test: SPR (Biacore), sample captured on Protein A, antigen flowed, 1:1 fit
T1 construct: Bought protein
T1 sequence (looked up): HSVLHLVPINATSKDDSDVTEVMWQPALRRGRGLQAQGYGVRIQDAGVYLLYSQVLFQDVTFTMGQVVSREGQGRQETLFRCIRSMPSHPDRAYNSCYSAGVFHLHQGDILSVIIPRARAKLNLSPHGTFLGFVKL
Description: A certain amount of test sample was subjected to affinity capture by a biosensor chip Protein A (GE, 29127556), then antigens at a series of concentration gradients were allowed to flow on the surface of the chip. The reaction signals were detected in real time by using Biacore (GE, 8K) to obtain association and dissociation curves. After the dissociation was completed for each cycle, the biochip was washed and regenerated with a 10 mM glycine-hydrochloric acid solution at pH 1.5 (GE, BR-1003-54). The experimental data were fitted using BIAevaluation version 4.1, GE software with a 1:1 model to obtain affinity values. The related antigen proteins used in this assay are as follows: human IL-23 (CT048-H08H, Sino biological), human IL-12 (CT050-H08H, Sino biological), human BAFF (10056-HNCH, Sino biological), human APRIL (5860-AP-010/CF, R&D Systems), cynomolgus monkey p40 (10215-CL, R&D Systems), cynomolgus monkey BAFF (BAF-CM412B, Kactus), cynomolgus monkey APRIL (APR-CM410B, Kactus), mouse BAFF (BAF-M521y, Acro Biosystems), and mouse APRIL (7907-AP/CF, R&D Systems).

[2] = target: T2, human BAFF (10056-HNCH, Sino biological) (human, UniProt Q9Y275 134-285); test: ELISA, BAFF coated, fusion protein titrated
T2 construct: Bought protein
Description: (§1) The binding activity of the antibodies or fusion proteins for BAFF, APRIL, and IL-12/23 p40 was assayed by the ELISA method (coating an antigen protein). The specific procedures were as follows:
(§2) A BAFF (Sino biological, 10056-HNCH), APRIL (R&D Systems, 5860-AP-010/CF), or IL-12/23 p40 (Sino biological, 10052-H08H) protein was diluted to 1 μg/mL with a PBS (BasalMedia, B320) buffer at pH 7.4, and added to a 96-well microplate (Corning, 3590) at 100 μL/well. The plate was incubated at 4° C. overnight. After the liquid was discarded, 300 μL of 5% skim milk (BD, 232100) diluted with PBS was added to each well for blocking, and the plate was incubated at 37° C. for 2 h. After the blocking was completed, the blocking solution was discarded, and the plate was washed 3 times with a PBST buffer (PBS at pH 7.4 containing 0.1% tween-20). 100 μL of test antibody or fusion protein solution diluted in a gradient was added to each well, and the plate was incubated at 37° C. for 1 h. After the incubation was completed, the plate was washed 3 times with PBST. […] The plate was washed 3 times with PBST. 100 μL of TMB chromogenic substrate (KPL, 5120-0077) was added to each well, and the plate was incubated at room temperature for 10-15 min. The reaction was stopped by adding 50 μL of 1 M H₂SO₄ to each well. The plate was read for absorbance values at 450 nm on a microplate reader, the binding curves of the antibodies to an antigen were fitted with software, and the EC₅₀ values were calculated.

[3] = target: T2, human BAFF (10056-HNCH, Sino biological); test: SPR (Biacore), sample captured on Protein A, antigen flowed, 1:1 fit
[4] = target: T2, human BAFF (10056-HNCH, Sino biological); test: competition ELISA: biotin-labeled BAFF to coated BAFF-R
Description: (§3) The blocking activity of the antibodies and the fusion proteins for receptors and ligands such as BAFF/BAFF-R, BAFF/BCMA, BAFF/TACI, APRIL/BCMA, APRIL/TACI, and p40/IL-12R1 was assayed by the ELISA method. The specific procedures were as follows:
(§4) A receptor protein was diluted to 2 μg/mL with PBS at pH 7.4 (BasalMedia, B320) and added to a 96-well microplate (Corning, 3590) at 100 μL/well. The plate was incubated at 4° C. overnight. After the liquid was discarded, 200 μL of 1% Casein blocking solution (Thermo, 37528) was added to each well for blocking, and the plate was incubated at 37° C. for 2 h. After the blocking was completed, the blocking solution was discarded, and the plate was washed 3 times with a PBST buffer (PBS at pH 7.4 containing 0.1% tween-20) for later use. A biotin-labeled ligand protein at a fixed concentration was mixed with the antibody or fusion protein diluted in gradient, pre-incubated at 37° C. for 30 min, and added to a blocked microplate. The plate was incubated at 37° C. for 1.5 h. After the incubation was completed, the plate was washed 3 times with PBST. 100 μL of streptavidin-HRP (Invitrogen, 434323, diluted at a ratio of 1:4000) was added to each well, and the plate was incubated at 37° C. for 1 h. The supernatant was removed, and the plate was washed 3 times with PBST. 100 μL of TMB chromogenic substrate (KPL, 5120-0077) was added to each well, and the plate was incubated at room temperature for 10-15 min. The reaction was stopped by adding 50 μL of 1 M H₂SO₄ to each well. The plate was read for absorbance values at 450 nm on a microplate reader, the curves for the inhibition of the binding of the ligands to the receptors were fitted with software, and the IC₅₀ values were calculated.

[5] = target: T2, human BAFF (10056-HNCH, Sino biological); test: ELISA, BAFF coated, fusion protein titrated; remark: listed apart in the source
Description: as §1, §2

[6] = target: T2, human BAFF (10056-HNCH, Sino biological); test: competition ELISA: biotin-labeled BAFF to coated BAFF-R; remark: listed apart in the source
Description: as §3, §4

B1: TACI-9-10Fc (Fc fusion)
chain: SLSCREEQGEFYDHLLRDCISCASICGQHPKQCAYFCENKLDKTHTCPPCPAPEAEGAPSVFLFPPKPKDTLMISRTPEVTCVVVDVSHEDPEVKFNWYVDGVEVHNAKTKPREEQYNSTYRVVSVLTVLHQDWLNGKEYKCKVSNKALPSSIEKTISKAKGQPREPQVYTLPPSRDELTKNQVSLTCLVKGFYPSDIAVEWESNGQPENNYKTTPPVLDSDGSFFLYSKLTVDKSRWQQGNVFSCSVMHEALHNHYTQKSLSLSPGK
notes: TACI-9 with K6E and K10E, fused to Fc; two identical polypeptides
- Kd [1]: 0.0128 nM
- koff [1]: 0.000112 s⁻¹
- kon [1]: 8.75e+06 M⁻¹ s⁻¹
- EC50 [2]: 0.12 nM
- Kd [3]: 0.081 nM
- koff [3]: 1.89e-05 s⁻¹
- kon [3]: 234000 M⁻¹ s⁻¹

B2: TACI-9-13Fc (Fc fusion)
chain: STSCRKEQGKFYDHLLRDCISCASICGQHPKQCAYYCENKLDKTHTCPPCPAPEAEGAPSVFLFPPKPKDTLMISRTPEVTCVVVDVSHEDPEVKFNWYVDGVEVHNAKTKPREEQYNSTYRVVSVLTVLHQDWLNGKEYKCKVSNKALPSSIEKTISKAKGQPREPQVYTLPPSRDELTKNQVSLTCLVKGFYPSDIAVEWESNGQPENNYKTTPPVLDSDGSFFLYSKLTVDKSRWQQGNVFSCSVMHEALHNHYTQKSLSLSPGK
notes: two identical polypeptides
- EC50 [2]: 0.433 nM

B3: TACI-9-14Fc (Fc fusion)
chain: STSCRKEQGKFYDHLLRDCISCASICGQHPKQCAAYCENKLDKTHTCPPCPAPEAEGAPSVFLFPPKPKDTLMISRTPEVTCVVVDVSHEDPEVKFNWYVDGVEVHNAKTKPREEQYNSTYRVVSVLTVLHQDWLNGKEYKCKVSNKALPSSIEKTISKAKGQPREPQVYTLPPSRDELTKNQVSLTCLVKGFYPSDIAVEWESNGQPENNYKTTPPVLDSDGSFFLYSKLTVDKSRWQQGNVFSCSVMHEALHNHYTQKSLSLSPGK
notes: two identical polypeptides
- EC50 [2]: 0.223 nM

B4: TACI-9-15Fc (Fc fusion)
chain: STSCREEQGEFYDHLLRDCISCASICGQHPKQCAAFCENKLDKTHTCPPCPAPEAEGAPSVFLFPPKPKDTLMISRTPEVTCVVVDVSHEDPEVKFNWYVDGVEVHNAKTKPREEQYNSTYRVVSVLTVLHQDWLNGKEYKCKVSNKALPSSIEKTISKAKGQPREPQVYTLPPSRDELTKNQVSLTCLVKGFYPSDIAVEWESNGQPENNYKTTPPVLDSDGSFFLYSKLTVDKSRWQQGNVFSCSVMHEALHNHYTQKSLSLSPGK
notes: two identical polypeptides
- Kd [1]: 0.0125 nM
- koff [1]: 9.6e-05 s⁻¹
- kon [1]: 7.67e+06 M⁻¹ s⁻¹
- EC50 [2]: 0.0869 nM
- Kd [3]: 0.0773 nM
- koff [3]: 2.12e-05 s⁻¹
- kon [3]: 274000 M⁻¹ s⁻¹

B5: TACI-10 Fc (Fc fusion)
chain: SLSCRKEQGKFYDHLLRDCISCASICGQHPKQCAYFCENKDKTHTCPPCPAPEAEGAPSVFLFPPKPKDTLMISRTPEVTCVVVDVSHEDPEVKFNWYVDGVEVHNAKTKPREEQYNSTYRVVSVLTVLHQDWLNGKEYKCKVSNKALPSSIEKTISKAKGQPREPQVYTLPPSRDELTKNQVSLTCLVKGFYPSDIAVEWESNGQPENNYKTTPPVLDSDGSFFLYSKLTVDKSRWQQGNVFSCSVMHEALHNHYTQKSLSLSPGK
notes: TACI-9 truncated at the C-terminus by 1 amino acid L, fused directly to Fc; two identical polypeptides
- IC50 [4]: 2.7 nM
- EC50 [5]: 0.561 nM

B6: TACI-16Fc (Fc fusion)
chain: LSCRKEQGKFYDHLLRDCISCASICGQHPKQCAYFCEDKTHTCPPCPAPEAEGAPSVFLFPPKPKDTLMISRTPEVTCVVVDVSHEDPEVKFNWYVDGVEVHNAKTKPREEQYNSTYRVVSVLTVLHQDWLNGKEYKCKVSNKALPSSIEKTISKAKGQPREPQVYTLPPSRDELTKNQVSLTCLVKGFYPSDIAVEWESNGQPENNYKTTPPVLDSDGSFFLYSKLTVDKSRWQQGNVFSCSVMHEALHNHYTQKSLSLSPGK
notes: Fused directly to Fc; two identical polypeptides
- IC50 [6]: 2.22 nM
- EC50 [5]: 0.599 nM

B7: TACI-17Fc (Fc fusion)
chain: SCRKEQGKFYDHLLRDCISCASICGQHPKQCAYFCEDKTHTCPPCPAPEAEGAPSVFLFPPKPKDTLMISRTPEVTCVVVDVSHEDPEVKFNWYVDGVEVHNAKTKPREEQYNSTYRVVSVLTVLHQDWLNGKEYKCKVSNKALPSSIEKTISKAKGQPREPQVYTLPPSRDELTKNQVSLTCLVKGFYPSDIAVEWESNGQPENNYKTTPPVLDSDGSFFLYSKLTVDKSRWQQGNVFSCSVMHEALHNHYTQKSLSLSPGK
notes: as for B6
- IC50 [6]: 2.82 nM
- EC50 [5]: 0.996 nM

B8: TACI-18Fc (Fc fusion)
chain: CRKEQGKFYDHLLRDCISCASICGQHPKQCAYFCEDKTHTCPPCPAPEAEGAPSVFLFPPKPKDTLMISRTPEVTCVVVDVSHEDPEVKFNWYVDGVEVHNAKTKPREEQYNSTYRVVSVLTVLHQDWLNGKEYKCKVSNKALPSSIEKTISKAKGQPREPQVYTLPPSRDELTKNQVSLTCLVKGFYPSDIAVEWESNGQPENNYKTTPPVLDSDGSFFLYSKLTVDKSRWQQGNVFSCSVMHEALHNHYTQKSLSLSPGK
notes: as for B6
- IC50 [6]: 3.26 nM
- EC50 [5]: 0.992 nM

B9: TACI-19Fc (Fc fusion)
chain: RKEQGKFYDHLLRDCISCASICGQHPKQCAYFCEDKTHTCPPCPAPEAEGAPSVFLFPPKPKDTLMISRTPEVTCVVVDVSHEDPEVKFNWYVDGVEVHNAKTKPREEQYNSTYRVVSVLTVLHQDWLNGKEYKCKVSNKALPSSIEKTISKAKGQPREPQVYTLPPSRDELTKNQVSLTCLVKGFYPSDIAVEWESNGQPENNYKTTPPVLDSDGSFFLYSKLTVDKSRWQQGNVFSCSVMHEALHNHYTQKSLSLSPGK
notes: as for B6
- IC50 [6]: 2220 nM
- EC50 [5]: 4.99 nM

B10: TACI-20Fc (Fc fusion)
chain: KEQGKFYDHLLRDCISCASICGQHPKQCAYFCEDKTHTCPPCPAPEAEGAPSVFLFPPKPKDTLMISRTPEVTCVVVDVSHEDPEVKFNWYVDGVEVHNAKTKPREEQYNSTYRVVSVLTVLHQDWLNGKEYKCKVSNKALPSSIEKTISKAKGQPREPQVYTLPPSRDELTKNQVSLTCLVKGFYPSDIAVEWESNGQPENNYKTTPPVLDSDGSFFLYSKLTVDKSRWQQGNVFSCSVMHEALHNHYTQKSLSLSPGK
notes: as for B6
- IC50 [6]: 2360 nM
- EC50 [5]: 7.19 nM

B11: TACI-21Fc (Fc fusion)
chain: EQGKFYDHLLRDCISCASICGQHPKQCAYFCEDKTHTCPPCPAPEAEGAPSVFLFPPKPKDTLMISRTPEVTCVVVDVSHEDPEVKFNWYVDGVEVHNAKTKPREEQYNSTYRVVSVLTVLHQDWLNGKEYKCKVSNKALPSSIEKTISKAKGQPREPQVYTLPPSRDELTKNQVSLTCLVKGFYPSDIAVEWESNGQPENNYKTTPPVLDSDGSFFLYSKLTVDKSRWQQGNVFSCSVMHEALHNHYTQKSLSLSPGK
notes: as for B6
- IC50 [6]: 2520 nM
- EC50 [5]: 9.8 nM
